Source: patent US20170298331

How the values were obtained:
TALEN TN3 (Artificial) = test: cell_activity; details: pair TN3/8, 17 bp spacer, preceded by 5'-T; Surveyor assay in DMD myoblasts (up to 12.7% and 6.8% in two lines)
TALEN TN8 (Artificial) = test: cell_activity; details: pair TN3/8, 17 bp spacer, preceded by 5'-T; Surveyor assay in DMD myoblasts (up to 12.7% and 6.8% in two lines)

Row | Sequence | activity (% modified alleles) (TALEN TN3 (Artificial)) | activity (% modified alleles) (TALEN TN8 (Artificial))
1 | AGCTCCTACTCAGACT (double strand) [TN3 half-site, DMD exon 51] | 12.7 | 
2 | CCTTAGTAACCACAGGT (double strand) [TN8 half-site, DMD exon 51] |  | 12.7
